# According to the RNAGym collection of RNA variant scans (doi:10.7554/elife.90254):
# B1: LINE1-mini (parent)
# chain: GGCAGAGCUCAACACAGCGUGGCAAAGUGGCUGUGGCUAGACUGCC
# Variants of: B1
# Experiment: self-cleavage, relative activity (ratio to wild type); higher = more cleavage; in vitro, sequencing; the parent is a self-cleaving ribozyme
row,Variant,self-cleavage
1,A26G A39C,0.18
2,A26G A39U,0.5
3,A26G A39G,0.05
4,A26U G33U,0.08
5,A26U G33A,0.09
6,A26U G33C,0.06
7,A25U,1.21
8,A25G C42U,0.26
9,A25G C42G,0.05
10,A25G C42A,0.09
11,G27A G30C,1.53
12,G27A G30U,1.61
13,G27A G30A,2.28
14,A26G C42G,0.05
15,A26G C42A,0.08
16,A26G C42U,0.13
17,A25U G35U,0.16
18,A25U G35A,0.12
19,A25U G35C,0.09
20,A26G C45U,0.77
21,A26G C45A,1.06
22,A26G C45G,0.31
23,A26C C45G,0.8
24,A26C C45A,0.8

row,Variant,self-cleavage
1,A26C C45U,1.17
2,A25U G29C,0.38
3,A25U G29U,2.16
4,A25U G29A,0.79
5,A25G U38G,0.01
6,A25G U38C,0.14
7,A25G U38A,0.46
8,G27A G33U,0.17
9,G27A G33C,0.08
10,G27A G33A,0.1
11,A26G G33A,0.09
12,A26G G33U,0.07
13,A26G G33C,0.08
14,A26U U43A,0.08
15,A26U U43C,0.12
16,A26U U43G,0.09
17,A25U G33U,0.13
18,A25U G33A,0.12
19,A25U G33C,0.04
20,A26C G27A,0.57
21,A26C G27U,0.46
22,A26C G27C,0.9
23,A26C U34A,0.1
24,A26C U34G,0.32

row,Variant,self-cleavage
1,A26C U34C,0.33
2,A26C G35C,0.16
3,A26C G35A,0.18
4,A26C G35U,0.09
5,A26U U34A,0.07
6,A26U U34G,0.15
7,A26U U34C,0.18
8,A26G G44C,0.28
9,A26G G44A,0.31
10,A26G G44U,0.3
11,A26U G30U,1.25
12,A26U G30C,1.31
13,A26U G30A,1.56
14,A25U C42G,0.06
15,A25U C42A,0.24
16,A25U C42U,0.4
17,A26G U32A,0.08
18,A26G U32G,0.18
19,A26G U32C,0.18
20,A26C G29C,0.37
21,A26C G29U,0.54
22,A26C G30U,1.45
23,A26C G30A,1.12
24,G27A C31G,0.2

row,Variant,self-cleavage
1,G27A C31U,0.26
2,G27A C31A,1.09
3,A25U C37A,0.06
4,A25U C37G,0.02
5,A25U C37U,0.03
6,A25G C46U,0.4
7,A25G C46G,0.78
8,A25G C46A,0.55
9,A26G G27U,0.94
10,A26G G27A,0.99
11,A26G G27C,1.15
12,A26G G36A,0.28
13,A26G G36C,0.07
14,A26G G36U,0.12
15,G27A G29C,0.36
16,G27A G29U,0.5
17,G27A G29A,0.65
18,A25G C37A,0.05
19,A25G C37G,0.03
20,A25G C37U,0.06
21,A26U G40C,0.06
22,A26U G40U,0.13
23,A26U G40A,0.17
24,G27A,0.81

row,Variant,self-cleavage
1,A26G G30A,2.6
2,A26G G30U,1.61
3,A26G G30C,1.27
4,A25G G44A,0.21
5,A25G G44U,0.28
6,A25G G44C,0.19
7,G27A C37A,0.05
8,G27A C37U,0.05
9,G27A C37G,0.02
10,A25U A26C,1.79
11,A25U A26G,0.71
12,A25U A26U,1.23
13,A26U C37U,0.08
14,A26U C37A,0.08
15,A26U C37G,0.05
16,A26G U28C,1.18
17,A26G U28A,1.25
18,A26G U28G,0.37
19,A25G G36U,0.05
20,A25G G36A,0.15
21,A25G G36C,0.04
22,A25G C45A,0.86
23,A25G C45U,0.45
24,A25G C45G,0.17

row,Variant,self-cleavage
1,A26U G29A,1.35
2,A26U G29C,0.35
3,A26U G29U,1.61
4,A25G C31U,0.13
5,A25G C31G,0.27
6,A25G C31A,0.1
7,A26G G35A,0.1
8,A26G G35U,0.16
9,A26G G35C,0.1
10,A25G G35U,0.06
11,A25G G35A,0.11
12,A25G G35C,0.04
13,A26C C31G,0.06
14,A26C C31U,0.17
15,A26C C31A,0.38
16,G27A C42A,0.21
17,G27A C42U,0.26
18,G27A C42G,0.05
19,A25U G36A,0.12
20,A25U G36U,0.07
21,A25U G36C,0.05
22,A25U C45G,0.19
23,A25U C45A,0.41
24,A25U C45U,2.13

row,Variant,self-cleavage
1,A26U C46A,0.77
2,A26U C46U,2.38
3,A26U C46G,1.18
4,A26C C42G,0.04
5,A26C C42U,0.48
6,A26C C42A,0.16
7,A25U G44A,0.28
8,A25U G44C,0.29
9,A25U G44U,0.4
10,A26C G40U,0.09
11,A26C G40A,0.12
12,A26C G40C,0.07
13,A25U U32A,0.04
14,A25U U32G,0.3
15,A25U U32C,0.27
16,A26C A39C,0.09
17,A26C A39U,0.43
18,A26C A39G,0.05
19,A25U A41C,0.07
20,A25U A41G,0.38
21,A25U A41U,0.6
22,A26C U38C,0.83
23,A26C U38G,0.03
24,A26C U38A,1.02

row,Variant,self-cleavage
1,A26U G35C,0.09
2,A26U G35A,0.24
3,A26U G35U,0.16
4,A25G U43A,0.13
5,A25G U43C,0.1
6,G27A A39C,0.11
7,G27A A39G,0.08
8,G27A A39U,0.59
9,A26C C37U,0.07
10,A26C C37A,0.05
11,A26C C37G,0.02
12,A25U G40A,0.18
13,A25U G40U,0.14
14,A25U G40C,0.09
15,A25U G27C,0.52
16,A25U G27U,0.74
17,A25U G27A,0.59
18,G27A A41C,0.04
19,G27A A41U,0.49
20,G27A A41G,0.38
21,A26G U34G,0.03
22,A26G U34A,0.04
23,A26G U34C,0.08
24,A26U G27C,0.66

row,Variant,self-cleavage
1,A26U G27U,1.41
2,A26U G27A,0.8
3,A25G G30C,1.19
4,A25G G30U,0.89
5,A25G G30A,0.97
6,A26U G36C,0.13
7,A26U G36U,0.09
8,A26U G36A,0.23
9,A25U U38C,0.31
10,A25U U38A,0.6
11,A25U U38G,0.03
12,A25G U34G,0.12
13,A25G U34A,0.06
14,A25G U34C,0.07
15,A26G C37A,0.02
16,A26G C37G,0.03
17,A26G C37U,0.04
18,A25U C31U,0.23
19,A25U C31G,0.1
20,A25U C31A,0.13
21,A25G A41C,0.04
22,A25G A41U,0.19
23,A25G A41G,0.26
24,A25U U28A,0.5

row,Variant,self-cleavage
1,A25U U28C,1.19
2,A25U U28G,0.82
3,A26U C42U,0.08
4,A26U C42G,0.1
5,A26U C42A,0.29
6,A25U G30C,0.46
7,A25U G30U,1.75
8,A25U G30A,1.17
9,A26C C46A,0.83
10,A26C C46U,1.46
11,A26C C46G,0.75
12,A26G A41G,0.2
13,A26G A41C,0.12
14,A26G A41U,0.54
15,A26G C46A,1.08
16,A26G C46G,1.53
17,A26G C46U,0.58
18,A25U A39U,0.86
19,A25U A39C,0.23
20,A25U A39G,0.07
21,A26C A41C,0.04
22,A26C A41U,0.72
23,A26C A41G,0.23
24,G27A C46A,1.19

row,Variant,self-cleavage
1,G27A C46U,2.06
2,G27A C46G,1.05
3,A26U G44U,0.41
4,A26U G44A,0.64
5,A26U G44C,0.64
6,A26U U32G,0.36
7,A26U U32A,0.11
8,A26U U32C,0.11
9,G27A C45U,1.88
10,G27A C45A,0.79
11,G27A C45G,0.51
12,A26G G40C,0.08
13,A26G G40U,0.15
14,A26G G40A,0.14
15,A26G G29A,0.36
16,A26G G29C,0.89
17,A26G G29U,1.23
18,A25G G27A,0.37
19,A25G G27C,0.16
20,A25G G27U,0.48
21,A25U U43A,0.21
22,A25U U43G,0
23,A25U U43C,0.1
24,A26U,1.27

row,Variant,self-cleavage
1,A26C,0.9
2,A26G,0.87
3,A26U A39G,0.22
4,A26U A39C,0.25
5,A26U A39U,2.46
6,A26U U28G,1.74
7,A26U U28C,0.74
8,A26U U28A,0.88
9,A25G G40U,0.07
10,A25G G40A,0.04
11,A25G G40C,0.06
12,A26C U28C,0.4
13,A26C U28A,0.53
14,A26C U28G,0.66
15,A26C G36U,0.07
16,A26C G36A,0.14
17,A26C G36C,0.11
18,A25U U34A,0.16
19,A25U U34C,0.13
20,A25U U34G,0.16
21,G27A G35A,0.19
22,G27A G35C,0.12
23,A25G G33A,0.04
24,A25G G33C,0.04

row,Variant,self-cleavage
1,A25G G33U,0.05
2,A26U U38C,0.48
3,A26U U38A,0.35
4,A26U U38G,0.03
5,A26G C31A,0.11
6,A26G C31G,0.06
7,A26G C31U,0.15
8,A26G U43C,0.05
9,A26G U43G,0.03
10,A26G U43A,0.07
11,A26C G33U,0.08
12,A26C G33A,0.17
13,A26C G33C,0.07
14,A25U C46A,1.01
15,A25U C46G,0.66
16,A25U C46U,1.04
17,A25G U32C,0.06
18,A25G U32A,0.11
19,A25G U32G,0.12
20,A26U C31A,0.14
21,A26U C31G,0.08
22,A26U C31U,0.18
23,A25G U28A,1.01
24,A25G U28C,0.84

row,Variant,self-cleavage
1,A25G U28G,0.57
2,A26C G44C,0.35
3,A26C G44A,0.87
4,A26C G44U,0.28
5,A26G U38A,0.52
6,A26G U38C,0.44
7,A26G U38G,0.01
8,A26U A41G,0.37
9,A26U A41C,0.07
10,A26U A41U,0.75
11,A26C U32C,0.24
12,A26C U32A,0.14
13,A26C U32G,0.13
14,A26C U43G,0.12
15,A26C U43A,0.07
16,A26C U43C,0.25
17,A26U C45A,1.95
18,A26U C45G,0.64
19,A26U C45U,0.83
20,A25G G29C,0.65
21,A25G G29U,1.14
22,A25G G29A,0.32
